Data published in article PMC7864943, “Structural elements in the flexible tail of the co-chaperone p23 coordinate client binding and progression of the Hsp90 chaperone cycle” (Nature Communications, 2021).

What was measured:
Conditions in all cases: both partners purified
[1] = biological target: T1, yeast Hsp90 (Hsp82), full length (yeast, UniProt P02829 1-709); experiment: ITC; 20 µM Hsp90 in the cell, p23^WT (135 µM) or mutants (up to 360 µM) in the syringe; 2 mM AMP-PNP; 40 mM Hepes, 150 mM KCl, 5 mM MgCl2, 1 mM DTT, pH 7.5; 30 °C
T1 construct: Hsp90 (Hsp82), yeast, full-length protein; Isotope-labelled (methyl-labelled, deuterated) in some NMR experiments; also called Hsp90 FL; Hsp90 dimer
T1 sequence (P02829 whole entry): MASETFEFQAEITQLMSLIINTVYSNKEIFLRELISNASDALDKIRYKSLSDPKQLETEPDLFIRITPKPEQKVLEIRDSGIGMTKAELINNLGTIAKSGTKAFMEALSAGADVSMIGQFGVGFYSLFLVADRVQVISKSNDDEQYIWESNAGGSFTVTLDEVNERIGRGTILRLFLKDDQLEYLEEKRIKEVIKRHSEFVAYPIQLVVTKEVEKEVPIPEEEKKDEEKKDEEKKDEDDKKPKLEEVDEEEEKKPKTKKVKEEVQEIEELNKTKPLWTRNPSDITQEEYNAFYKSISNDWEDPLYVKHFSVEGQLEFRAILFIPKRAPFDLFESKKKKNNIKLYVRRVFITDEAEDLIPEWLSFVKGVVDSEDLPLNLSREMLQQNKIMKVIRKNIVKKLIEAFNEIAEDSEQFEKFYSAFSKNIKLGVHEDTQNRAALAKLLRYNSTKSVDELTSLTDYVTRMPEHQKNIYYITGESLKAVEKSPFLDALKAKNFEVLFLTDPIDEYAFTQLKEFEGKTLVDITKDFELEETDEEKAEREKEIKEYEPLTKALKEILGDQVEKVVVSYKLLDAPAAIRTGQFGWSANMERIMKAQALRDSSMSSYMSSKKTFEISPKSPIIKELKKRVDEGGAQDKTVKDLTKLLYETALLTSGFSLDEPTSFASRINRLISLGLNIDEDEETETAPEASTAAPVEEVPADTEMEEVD

[2] = biological target: T1, yeast Hsp90 (Hsp82), full length; experiment: ATPase inhibition assay; apparent Ki; ATP-regenerating system, 30 °C; 3 µM yeast Hsp90 (Hsp82) with rising concentrations of p23 or mutants; 40 mM Hepes, 150 mM KCl, 5 mM MgCl2, 1 mM DTT, pH 7.5; 2 mM ATP
[3] = biological target: T2, human Hsp90β, full length (human, UniProt P08238 1-724); experiment: NMR titration; 1H-15N HSQC of 15N-labeled p23 with unlabeled full-length Hsp90/AMP-PNP or GR-LBDm alone; peak intensity ratios; 25 mM Tris, 200 mM NaCl, 5 mM DTT, 0.5 mM dexamethasone, pH 7; 30 °C
T2 construct: also called Hsp90 FL (human); source: E. coli BL-21 DE3, purified (the methods speak of Hsp90 and p23 in general)
T2 sequence (P08238 whole entry): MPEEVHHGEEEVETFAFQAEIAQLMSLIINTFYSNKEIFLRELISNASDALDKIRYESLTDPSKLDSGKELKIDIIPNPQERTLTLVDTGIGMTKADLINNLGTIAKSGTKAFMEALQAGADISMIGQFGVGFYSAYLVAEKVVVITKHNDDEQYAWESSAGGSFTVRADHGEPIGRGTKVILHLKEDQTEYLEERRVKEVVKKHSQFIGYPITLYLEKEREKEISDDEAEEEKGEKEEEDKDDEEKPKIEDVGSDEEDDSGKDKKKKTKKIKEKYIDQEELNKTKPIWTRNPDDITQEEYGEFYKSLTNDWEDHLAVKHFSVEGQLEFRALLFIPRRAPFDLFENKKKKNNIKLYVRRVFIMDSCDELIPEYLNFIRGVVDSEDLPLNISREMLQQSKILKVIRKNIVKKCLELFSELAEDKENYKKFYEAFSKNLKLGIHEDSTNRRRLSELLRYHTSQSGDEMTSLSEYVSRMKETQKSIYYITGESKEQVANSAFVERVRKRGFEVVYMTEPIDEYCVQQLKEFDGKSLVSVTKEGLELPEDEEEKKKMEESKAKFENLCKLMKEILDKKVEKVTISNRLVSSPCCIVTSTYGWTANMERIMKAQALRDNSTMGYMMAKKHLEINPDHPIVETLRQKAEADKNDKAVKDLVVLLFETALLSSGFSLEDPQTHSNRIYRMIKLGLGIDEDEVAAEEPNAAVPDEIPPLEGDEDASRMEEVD

Row | Kd [1] | Ki [2] | binding result [3] | Binder
1 | 1.3 µM | 2.6 µM | – | yeast p23^W124A (natural protein, UniProt P28707 1-216, looked up, p23/Sba1, yeast, point mutant of the wild type (aa 1-216); source: E. coli BL-21 DE3, purified) MSDKVINPQVAWAQRSSTTDPERNYVLITVSIADCDAPELTIKPSYIELKAQSKPHVGDENVHHYQLHIDLYKEIIPEKTMHKVANGQHYFLKLYKKDLESEYWPRLTKEKVKYPYIKTDFDKAVDEDEQDEVEAEGNDAAQGMDFSQMMGGAGGAGGAGGMDFSQMMGGAGGAGSPDMAQLQQLLAQSGGNLDMGDFKENDEEDEEEEIEPEVKA
2 | – | 10.8 µM | – | yeast p23^Δ91 (domain or fragment, UniProt P28707 1-125, looked up, p23/Sba1, yeast, C-terminal deletion mutant Δ91; source: E. coli BL-21 DE3, purified) MSDKVINPQVAWAQRSSTTDPERNYVLITVSIADCDAPELTIKPSYIELKAQSKPHVGDENVHHYQLHIDLYKEIIPEKTMHKVANGQHYFLKLYKKDLESEYWPRLTKEKVKYPYIKTDFDKWV
3 | 2.3 µM | 2.2 µM | – | yeast p23^Δ88 (domain or fragment, UniProt P28707 1-128, looked up, p23/Sba1, yeast, C-terminal deletion mutant Δ88; source: E. coli BL-21 DE3, purified) MSDKVINPQVAWAQRSSTTDPERNYVLITVSIADCDAPELTIKPSYIELKAQSKPHVGDENVHHYQLHIDLYKEIIPEKTMHKVANGQHYFLKLYKKDLESEYWPRLTKEKVKYPYIKTDFDKWVDED
4 | – | – | binds | human p23 (natural protein, UniProt Q15185 1-160, looked up, p23, human; helical stretch at residues 117-127 of the tail; 15N-labelled; also called p23 (human); source: E. coli BL-21 DE3, purified (the methods speak of Hsp90 and p23 in general)) MQPASAKWYDRRDYVFIEFCVEDSKDVNVNFEKSKLTFSCLGGSDNFKHLNEIDLFHCIDPNDSKHKRTDRSILCCLRKGESGQSWPRLTKERAKLNWLSVDFNNWKDWEDDSDEDMSNFDRFSEMMNNMGGDEDVDLPEVDGADDDSQDSDDEKMPDLE
